In paper doi:10.1101/580076 one finds stoichiometry N data, which are given here for one substance.

The assay concerns the target HAdV-D26 fiber-knob protein (human adenovirus D serotype 26 (HAdV-D26)). The experiment in a line: crystal structure.

In general, stoichiometry N refers to the number of molecules, sites or subunits per partner or assembly. Take “HAdV-D26 fiber-knob protein (domain or fragment)”: the stoichiometry N turned out to be 3.
